Earlier results in article PMC3240149.

Legend:
[1] = target: MMP-2 (Homo sapiens) (UniProt P08253)
[2] = target: MMP-3 (Homo sapiens) (UniProt P08254)
[3] = target: TACE (ADAM-17) (Homo sapiens) (UniProt P78536)
Chain of UniProt P78536 (P78536 215-671): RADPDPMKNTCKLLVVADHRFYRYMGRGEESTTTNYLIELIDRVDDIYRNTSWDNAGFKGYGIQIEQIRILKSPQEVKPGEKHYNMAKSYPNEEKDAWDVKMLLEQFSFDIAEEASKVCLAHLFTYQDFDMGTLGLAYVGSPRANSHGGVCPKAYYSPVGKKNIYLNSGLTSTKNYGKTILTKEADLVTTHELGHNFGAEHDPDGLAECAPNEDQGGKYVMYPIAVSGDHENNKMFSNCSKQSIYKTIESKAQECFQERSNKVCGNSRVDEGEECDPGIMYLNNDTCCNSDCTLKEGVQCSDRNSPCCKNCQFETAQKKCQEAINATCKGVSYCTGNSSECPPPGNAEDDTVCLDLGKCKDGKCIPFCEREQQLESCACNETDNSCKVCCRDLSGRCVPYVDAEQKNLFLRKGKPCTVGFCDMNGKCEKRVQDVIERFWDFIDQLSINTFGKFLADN

Chain of UniProt P08254 (P08254 100-477): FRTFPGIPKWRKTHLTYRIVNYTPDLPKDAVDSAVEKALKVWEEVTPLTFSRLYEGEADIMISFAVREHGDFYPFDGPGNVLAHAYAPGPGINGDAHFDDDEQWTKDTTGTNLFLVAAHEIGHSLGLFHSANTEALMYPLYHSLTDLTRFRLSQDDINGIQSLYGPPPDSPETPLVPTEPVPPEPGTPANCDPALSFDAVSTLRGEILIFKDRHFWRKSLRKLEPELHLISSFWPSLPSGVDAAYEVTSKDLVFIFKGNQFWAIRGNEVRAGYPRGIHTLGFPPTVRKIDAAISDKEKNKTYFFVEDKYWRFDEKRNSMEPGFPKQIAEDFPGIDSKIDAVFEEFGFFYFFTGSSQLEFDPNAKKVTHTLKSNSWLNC
Chain of UniProt P08253 (P08253 110-660): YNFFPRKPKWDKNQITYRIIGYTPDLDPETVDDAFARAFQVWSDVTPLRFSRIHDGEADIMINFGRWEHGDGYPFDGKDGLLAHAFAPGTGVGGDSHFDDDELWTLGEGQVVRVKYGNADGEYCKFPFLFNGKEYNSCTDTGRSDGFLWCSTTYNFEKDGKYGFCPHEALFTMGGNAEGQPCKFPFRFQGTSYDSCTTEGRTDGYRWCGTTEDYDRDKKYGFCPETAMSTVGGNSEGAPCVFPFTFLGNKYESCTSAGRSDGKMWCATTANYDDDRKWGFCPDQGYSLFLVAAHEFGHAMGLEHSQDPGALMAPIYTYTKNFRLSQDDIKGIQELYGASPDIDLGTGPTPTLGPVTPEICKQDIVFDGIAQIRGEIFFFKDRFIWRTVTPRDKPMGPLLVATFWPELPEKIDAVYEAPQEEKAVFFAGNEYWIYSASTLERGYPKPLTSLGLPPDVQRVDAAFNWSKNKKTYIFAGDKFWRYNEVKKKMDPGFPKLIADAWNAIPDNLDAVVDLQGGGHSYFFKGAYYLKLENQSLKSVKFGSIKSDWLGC

Row | Ki [1] [nM] | Substance | Ki [2] [nM] | Ki [3] [nM]
1 | 1000 | TIMP-2 (from UniProt P16035) |  | 
2 |  | TIMP-3 (from UniProt P35625) | 67 | 0.182
